The subject of one assay is caspase-9. The assay is described as follows: Caspase-9 activity in human corneal epithelial cells treated with TNF-α. It counts as cell-based. Particulars: for effect on TNF-α-induced caspase-9 activity: lacritin polypeptides 10 nM. As to the method: FIG. 13 graphically illustrates the ability of lacritin polypeptides (10 nM) to block TNFα induced caspase-9 activity in human corneal epithelial cells. The ordinate represents relative fluorescence units. White bars indicate 6 hours and diagonally-hatched bars indicate 9 hours.
Caspase-9 activity was measured in cells treated with various combinations of TNF-α, fragments of lacritin, and the PKC inhibitor Go6976. […] The PKC-α inhibitor Go6976 and C-25 fail to block this increase of the downstream initiator caspase-9.

Another assay deals with caspase-8. The assay is described as follows: Caspase-8 activity in human corneal epithelial cells treated with TNF-α. The assay is classed as cell-based. How it is done: FIG. 12 graphically illustrates the ability of lacritin polypeptides to block TNFα induced caspase-8 activity in human corneal epithelial cells. The ordinate represents relative fluorescence units. White bars indicate 1 hour and diagonally-hatched bars indicate 6 hours.
(§1) Lacritin-induced proliferation and calcium signaling was studied in the human corneal epithelial (HCE) cell line. HCE cells were grown at 37° C. in DMEM F/12 supplemented with 10% FBS and 50 μg/ml gentamicin. Each experiment was done in a dose- and time-dependent manner using TNF-α (5-20 ng/ml) and lacritin (1-10 nM). Cell viability was measured spectrophotometrically at an absorbance of 570 nm using the MTT assay. Caspase-8 activity was detected fluorometrically by measuring cleavage of the fluorogenic substrate IETD-pNA at an excitation wavelength of 405 nm. Lacritin-induced cell proliferation was studied by H3-thymidine incorporation and via fluorescence-based detection of PKC, PLC and cAMP. Calcium signaling was detected by confocal microscopy of Fluo-4 loaded cells.

Assay [1] has as its system human corneal epithelial (HCE) cell line. Description: TNF-α-induced cell death in HCE cells (MTT cell viability). The assay is classed as cell-based. Particulars: for protection from TNF-induced cell death (viability): 18 or 30 hours, FIG. 10. How it is done: as §1
The next assay relates to caspase-3. Description: Caspase-3 activity in human corneal epithelial cells treated with TNF. It counts as cell-based. Particulars: FIG. 11. How it is done:
FIG. 11 graphically illustrates the ability of lacritin and fragments of lacritin to inhibit the ability of tumor necrosis factor (TNF) to regulate caspase-3 activity in human corneal epithelial cells. Go6976 is an inhibitor of protein kinase C. The ordinate represents relative fluorescence units. White bars indicate 3 hours and diagonally-hatched bars indicate 6 hours.
as §1

Assay [2] relates to human salivary ductal (HSG) cells. Description: 3H-thymidine uptake mitogenesis assay. It counts as cell-based. Particulars: 10 nM; compared to intact lacritin. How it is done: (§2) For phosphotyrosine blotting and mitogenesis assays, cells in serum-containing media were seeded overnight in 24-well plates at a density of 0.5×10^5 cells/mm^2 corresponding to 20-30% confluency after cell attachment, incubated in serum-free media without supplements for 24 h (phosphotyrosine) or washed with serum-free media without supplements three times (mitogenesis) and incubated with lacritin (1-1000 nM), or positive controls EGF (1.6 nM) and 10% fetal bovine serum, or negative controls bovine serum albumin or no additive in serum-free media without supplements for the indicated times (phosphotyrosine) or 30 h (mitogenesis). For phosphotyrosine assays, cells were extracted in 1% NP40 containing sodium vanadate (2 mg/ml), DTT (5 mg/ml), protease inhibitors, 50 mM HEPES, 100 mM NaCl, and 2 mM EDTA; then separated by 10% SDS PAGE, transferred and blotted. The following antibodies (Cell Signaling Technology, Beverly Mass.) were tested: antiphosphotyrosine antibody (P-Tyr-100), anti-phospho-PKC αβII, anti-PKCα, anti-phospho-PKCδ, anti-phospho-PKC (pan), anti-p44/42 MAPK, anti-phospho-Raf, anti-phospho-SAPK/JNK, anti-phospho-p38 Map kinase, anti-phospho-Raf, anti-phospho-Akt, anti-phospho-CaMKII, anti-phospho-MARCKS, or anti-tubulin (loading control). After washing, bound antibodies were detected with peroxidase-labeled secondary antibody and ECL. With the exception of at least nine proteins in the P-Tyr-100 blot (FIG. 1), none of the effectors tested above appeared to be phospho-activated during lacritin signaling (not shown). For mitogenesis (Hussaini et al., '00), [^3H]-thymidine (2 mCi/ml) was added for the next 6 h. Incorporation was stopped with ice-cold phosphate buffered saline and followed by addition of cold and then room temperature trichloracetic acid (10%) for 10 min each, washing of cells with phosphate buffered saline, solubilization with 1 N sodium hydroxide, neutralization with 1 N hydrochloric acid, addition of scintillation fluid and then quantitation in a scintillation counter. To deplete PKCα in HSG cells, a pool of four PKCα-specific siRNAs (100 nM) were transfected via LipofectAMINE 2000 in Opti-MEMI Reduced Serum Medium (Invitrogen, Grand Island N.Y.) without serum and antibiotics according to manufacturer's instructions. Each of the four siRNAs was also individually transfected. In negative controls, cells were transfected with a pool of four lamin-specific siRNAs (Upstate LLC, Charlottesville Va.; Dharmacon Inc, Lafayette Colo.). Seventy-two hours post-transfection, mitogenesis was assessed by co-addition of 10 […] lacritin and [^3H]-thymidine (2 mCi/ml) (Amersham, Piscataway N.J.) for 24 hrs. PKCα depletion was confirmed by Western blotting.

In another assay the test system is MUC16. Description: MUC16 blot of human corneal epithelial cells. It counts as cell-based. Particulars: 10 nM. The source says: MUC16 is an important mucin on the ocular surface. Mucin contributes to the tear film, is important for wetting the ocular surface, and is reduced in Sjogren's syndrome patients. […] Cells were blotted for MUC16.
Assay [3] relates to PKCα. Description: PKCα translocation in HSG cells (immunofluorescence, fractionation). It counts as cell-based, human. Particulars: 15 min after treatment. The source says: In order to dissect the molecular pathways leading to the cell survival by lacritin, protein kinases and transcriptional factors were studied by Western blotting and immunofluorescence microscopy.
Images were acquired at 2-3 s intervals using LaserSharp2000 software (Bio-Rad) and store on disc for later analysis.

A further assay concerns NFATC1. Description: NFATC1 translocation in HSG cells (immunofluorescence). It counts as cell-based, human. Particulars: HSG and corneal epithelial cells. The source says:
In order to dissect the molecular pathways leading to the cell survival by lacritin, protein kinases and transcriptional factors were studied by Western blotting and immunofluorescence microscopy. […] On the other hand, there were increased activities of transcriptional factors such as nuclear factor of activated T-cells (NFAT) and NF-kappaB. In FIG. 4, translocation of PKC alpha and NFAT was detected by immunofluorescence coupled with confocal microscopic imaging. In resting HSG cells (left three images), PKC alpha distributes mainly in cytosol and membrane. Similarly, NFATc1 was also found to localize largely in cytosol. Cellular co-location of PKC alpha and NFATc1 is apparent upon merging the two immunofluorescent images, as the merged cy3 and FITC labels produce distinctive yellow color.
Images were acquired at 2-3 s intervals using LaserSharp2000 software (Bio-Rad) and store on disc for later analysis. For translocation assays, HSG cells […] phorbol 12-myristate 13-acetate, […], then washed with phosphate-buffered saline, formaldehyde-fixed, blocked with phosphate-buffered saline containing 1% bovine serum albumin and 10% goat serum, incubated with anti-PKCα (C-20) or anti-NFATC1 (mab 7A6) (both from Santa Cruz Biotechnology Inc.; Santa Cruz, Calif.) followed by secondary Cy3-, FITC- or Alexa488-labeled antibodies and confocal microscopic visualization (Bio-Rad Radiance2100).

For assay [4], the system named is PKCα. The assay is described as follows: Phospho-PKCα blot of HSG cell lysates. The assay is classed as cell-based, human. As to the method:
as §2
We imaged PKCα in cells 15 min after treatment (FIG. 8). Nonmitogenic construct/fragment C-25 (10 nM) had no effect, leaving PKCa diffusely distributed throughout the cytoplasm. […] The phosphorylation state of PKCα influences its translocation site. Hyperphosphorylated PKCα becomes associated with the plasma membrane whereas hypophosphorylated or dephosphorylated PKCα is known to translocate to the perinuclear Golgi region. To determine if the latter is true and if so over what time course, we treated cells with lacritin, N-24 and C-25, and then blotted cell lysates for phospho-PKC ? (FIG. 8B). 10 nM lacritin promotes PKC ? dephosphorylation within 1 min of addition. This form is sustained for at least 15 min, but by 30 min has returned to baseline phosphorylation. Dephosphorylation triggered by increasing molar levels of lacritin or N-24 mirrored the proliferation response with optimal dephosphorylation at 10 nM. Non-mitogenic C-25 had no effect, whereas positive control 4β-phorbol 12-myristate 13-acetate-promoted hyperphosphorylation.

We go through four molecules from patent US7648964B2, “Use of lacritin in promoting ocular cell survival” (University of Virginia Patent Foundation, priority 2004, dated 2010).

Entries after “also recorded” stand apart in the source; their conditions may differ.

In the case of TNF-α [reference compound], the “increase in caspase-9 activity” value in the assay on caspase-9 (TNF-α alone) was “multifold increase”. Further, the “increase in caspase-8 activity” value with caspase-8 (TNF-α alone) is “three-fold increase; also recorded: multifold increase”. In addition, the results for the TNF-α-induced cell death in assay [1] (after 18 hr) and in assay [1] (after 30 hr) were 32.2±2.6% and 73.7±10%, respectively.

B1: C-25: deletion of the 25 carboxy terminal amino acids of mature lacritin (SEQ ID NO:10) (protein)
chain: EDASSDSTGADPAQEAGTSKPNEEISGPAEPASPPETTTTAQETSAAAVQGTAKVTSSRQELNPLKSIVEKSILLTEQALAKAGKGMHGGVPGG
modifications: homo sapiens
On to B1, for which the “effect on TNF-α-induced caspase-9 activity” value in the assay on caspase-9 was “fail to block”. Besides, the “effect on TNF-α-induced caspase-8 activity” value with caspase-8 is listed as “fail to block”. Further, in the assay on caspase-3, the “protection from cell death by TNF (caspase-3 activity)” value is “do not protect”. Also, the “protection from TNF-induced cell death (viability)” value in assay [1] is reported as “no effect on viability loss”. The “mitogenic activity of deletion constructs” value (“mitogenic activity” below) in assay [2] is “inactive”. In the assay with MUC16, the MUC16 secretion result was “inactive”. In addition, the PKCα translocation result with PKCα [3] was “had no effect”. Further, the NFATC1 translocation result in the assay with NFATC1 was “had no effect”. Further, the “effect on PKCα phosphorylation” value in the assay with PKCα [4] is “had no effect”.

B2: C-5: deletion of the 5 carboxy terminal amino acids of mature lacritin (SEQ ID NO:10) (protein, listed as Homo sapiens)
chain: EDASSDSTGADPAQEAGTSKPNEEISGPAEPASPPETTTTAQETSAAAVQGTAKVTSSRQELNPLKSIVEKSILLTEQALAKAGKGMHGGVPGGKQFIENGSEFAQKLLKKFSL
Consider B2, for which the “effect on TNF-α-induced caspase-9 activity” value with caspase-9 was “blocked”. For the same molecule, in the assay with caspase-8, the “effect on TNF-α-induced caspase-8 activity” value is reported as “blocked”. The “protection from TNF-induced cell death (viability)” value in assay [1] is recorded as “protect”. Further, the “mitogenic activity” value in [2] was “active”.

B3: C-10: deletion of the 10 carboxy terminal amino acids of mature lacritin (SEQ ID NO:10) (protein)
chain: EDASSDSTGADPAQEAGTSKPNEEISGPAEPASPPETTTTAQETSAAAVQGTAKVTSSRQELNPLKSIVEKSILLTEQALAKAGKGMHGGVPGGKQFIENGSEFAQKLL
modifications: homo sapiens
In the case of B3, the “effect on TNF-α-induced caspase-9 activity” value with caspase-9 is listed as “blocked”. Further, the “effect on TNF-α-induced caspase-8 activity” value in the assay with caspase-8 is reported as “blocked”. Also, in assay [2], the “mitogenic activity” value is given as “active”.
